# Measured values published in paper PMC12603737, “Transmembrane domain interactions underlie NSG1 regulation of sortilin ectodomain shedding” (The Journal of Biological Chemistry, 2025).
# Legend:
# [1] = target: T1, sortilin T770W (human, UniProt Q99523 78-831, T770W); test: cell-based or functional assay
# T1 sequence (looked up): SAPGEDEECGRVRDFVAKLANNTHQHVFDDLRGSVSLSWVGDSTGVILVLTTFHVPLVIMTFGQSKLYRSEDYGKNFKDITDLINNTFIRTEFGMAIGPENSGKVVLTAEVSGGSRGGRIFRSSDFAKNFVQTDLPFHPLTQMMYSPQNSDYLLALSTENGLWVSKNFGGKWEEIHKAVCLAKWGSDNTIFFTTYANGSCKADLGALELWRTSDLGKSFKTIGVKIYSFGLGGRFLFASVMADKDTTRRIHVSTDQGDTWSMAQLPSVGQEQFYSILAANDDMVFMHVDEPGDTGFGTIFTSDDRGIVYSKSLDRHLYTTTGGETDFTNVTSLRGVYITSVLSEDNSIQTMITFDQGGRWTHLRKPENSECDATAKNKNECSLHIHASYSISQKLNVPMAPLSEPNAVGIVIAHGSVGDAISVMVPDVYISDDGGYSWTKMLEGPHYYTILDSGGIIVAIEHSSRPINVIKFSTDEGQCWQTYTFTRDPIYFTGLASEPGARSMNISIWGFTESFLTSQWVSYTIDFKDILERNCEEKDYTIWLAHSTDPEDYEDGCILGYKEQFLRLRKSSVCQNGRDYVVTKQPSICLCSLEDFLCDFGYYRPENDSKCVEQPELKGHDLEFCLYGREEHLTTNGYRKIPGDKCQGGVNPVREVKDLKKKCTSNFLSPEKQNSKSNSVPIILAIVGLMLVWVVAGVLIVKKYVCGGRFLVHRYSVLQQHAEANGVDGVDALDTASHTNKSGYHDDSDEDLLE
# [2] = target: T2, sortilin A773W (human, UniProt Q99523 78-831, A773W); test: cell-based or functional assay
# T2 sequence (looked up): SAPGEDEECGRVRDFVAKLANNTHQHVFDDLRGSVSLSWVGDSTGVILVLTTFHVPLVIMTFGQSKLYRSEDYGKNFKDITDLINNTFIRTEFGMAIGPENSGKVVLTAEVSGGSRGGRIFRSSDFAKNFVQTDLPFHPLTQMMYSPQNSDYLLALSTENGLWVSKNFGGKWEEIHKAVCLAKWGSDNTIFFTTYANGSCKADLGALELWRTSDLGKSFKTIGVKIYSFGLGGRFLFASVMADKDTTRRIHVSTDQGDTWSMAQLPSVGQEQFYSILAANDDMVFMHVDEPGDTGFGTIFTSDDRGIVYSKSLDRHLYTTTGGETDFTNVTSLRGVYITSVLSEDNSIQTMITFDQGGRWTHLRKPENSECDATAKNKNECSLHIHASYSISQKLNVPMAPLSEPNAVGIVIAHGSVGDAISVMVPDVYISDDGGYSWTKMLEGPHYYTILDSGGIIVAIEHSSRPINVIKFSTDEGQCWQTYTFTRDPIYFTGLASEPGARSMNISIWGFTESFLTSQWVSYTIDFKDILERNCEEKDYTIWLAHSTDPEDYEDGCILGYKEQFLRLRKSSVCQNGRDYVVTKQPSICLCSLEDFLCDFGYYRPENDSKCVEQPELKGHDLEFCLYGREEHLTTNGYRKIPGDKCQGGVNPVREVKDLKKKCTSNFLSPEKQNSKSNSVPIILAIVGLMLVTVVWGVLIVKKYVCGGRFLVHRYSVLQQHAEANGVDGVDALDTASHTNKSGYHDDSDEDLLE
# [3] = target: T3, sortilin Y781K (human, UniProt Q99523 78-831, Y781K); test: co-IP; HEK293MSR cells overexpressing sortilin WT or TMD mutants along with NSG1; lysis in 5 mM CHAPS buffer; IP with rabbit anti-sortilin (control rabbit IgG), protein A-agarose, 4 °C; NSG1 normalized to precipitated sortilin, percent of WT; five independent experiments; details: partners not purified
# T3 construct: signal peptide in the construct; propeptide too; Full-length human SORT1 with a mutation at the cytoplasmic border of the TMD; source: HEK293MSR, transfected, in lysate (5 mM CHAPS)
# T3 sequence (looked up): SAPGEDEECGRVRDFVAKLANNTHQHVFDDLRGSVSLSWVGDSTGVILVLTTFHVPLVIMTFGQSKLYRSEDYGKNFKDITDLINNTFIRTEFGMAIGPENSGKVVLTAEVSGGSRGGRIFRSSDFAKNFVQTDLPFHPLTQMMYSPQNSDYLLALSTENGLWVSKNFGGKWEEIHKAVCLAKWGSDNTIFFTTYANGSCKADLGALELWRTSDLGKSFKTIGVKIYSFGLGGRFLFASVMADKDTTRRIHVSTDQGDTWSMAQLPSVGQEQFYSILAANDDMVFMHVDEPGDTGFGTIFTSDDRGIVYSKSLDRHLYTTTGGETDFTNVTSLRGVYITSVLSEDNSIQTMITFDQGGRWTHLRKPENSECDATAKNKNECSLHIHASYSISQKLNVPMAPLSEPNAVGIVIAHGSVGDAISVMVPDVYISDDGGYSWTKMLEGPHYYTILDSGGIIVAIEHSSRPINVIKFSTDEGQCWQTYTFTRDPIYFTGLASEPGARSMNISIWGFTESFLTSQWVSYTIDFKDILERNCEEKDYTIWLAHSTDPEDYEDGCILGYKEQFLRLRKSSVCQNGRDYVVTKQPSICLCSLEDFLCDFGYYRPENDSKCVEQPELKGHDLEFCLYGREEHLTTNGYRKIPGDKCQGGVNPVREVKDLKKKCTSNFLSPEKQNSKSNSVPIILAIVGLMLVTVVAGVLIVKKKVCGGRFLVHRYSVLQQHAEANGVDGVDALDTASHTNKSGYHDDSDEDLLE
# [4] = target: T1, sortilin T770W; test: as above; details: partners not purified
# [5] = target: T2, sortilin A773W; test: as above; details: partners not purified
binder,measurement,setting,value
"neuron-specific gene 1 (NSG1) (natural protein, human, UniProt P42857 1-185, looked up, Human NSG1, subcloned from the pPR3 yeast two-hybrid library vector into pcDNA3; UniProt P42857 is printed for the modelling; no tag is named, detection with an anti-NSG1 antibody; source: HEK293MSR, transiently transfected, in lysate (5 mM CHAPS)) MVKLGNNFAEKGTKQPLLEDGFDTIPLMTPLDVNQLQFPPPDKVVVKTKTEYEPDRKKGKARPPQIAEFTVSITEGVTERFKVSVLVLFALAFLTCVVFLVVYKVYKYDRACPDGFVLKNTQCIPEGLESYYAEQDSSAREKFYTVINHYNLAKQSITRSVSPWMSVLSEEKLSEQETEAAEKSA","sortilin ectodomain accumulated in conditioned media of HEK293MSR cells cotransfected with NSG1 (Western blot), percent of WT sortilin",[1],40 % of WT sortilin
same,"sortilin ectodomain accumulated in conditioned media of HEK293MSR cells cotransfected with NSG1 (Western blot), percent of WT sortilin",[2],46 % of WT sortilin
same,"NSG1 coimmunoprecipitated, normalized to immunoprecipitated sortilin, percent of WT sortilin",[3],130%
same,"NSG1 coimmunoprecipitated, normalized to immunoprecipitated sortilin, percent of WT sortilin",[4],146%
same,"NSG1 coimmunoprecipitated, normalized to immunoprecipitated sortilin, percent of WT sortilin",[5],129%
